B1: LINE1-mini (parent)
chain: GGCAGAGCUCAACACAGCGUGGCAAAGUGGCUGUGGCUAGACUGCC

This note sets out measurements from the RNAGym collection of RNA variant scans (doi:10.7554/elife.90254).

In the data set the parent is B1. The data set is described as follows: self-cleavage, relative activity (ratio to wild type); higher = more cleavage; in vitro, sequencing; the parent is a self-cleaving ribozyme.
With G27A C46U, the self-cleavage was 2.06.

With G27A C46G, the self-cleavage was 1.05.

Consider G27A C46A, for which the self-cleavage was 1.19.

Take G27U: the self-cleavage was found to be 0.83.

As to G27C, the self-cleavage turned out to be 0.72.

For the variant G27A, the self-cleavage is 0.81.

In the case of A26U U32C, the self-cleavage worked out at 0.11.

Consider A26U U32A, for which the self-cleavage came to 0.11.

As to A26U U32G, the self-cleavage turned out to be 0.36.

With G27U U43G, the self-cleavage was determined as 0.11.

For the variant G27U U43C, the self-cleavage was 0.1.

Regarding G27U U43A, the self-cleavage was 0.17.

Regarding G27U G30C, the self-cleavage turned out to be 1.79.

Take G27U G30U: the self-cleavage amounted to 1.53.

Take G27U G30A: the self-cleavage came to 1.86.

Consider G27C G30A, for which the self-cleavage amounted to 1.2.

Regarding G27C G30C, the self-cleavage was found to be 0.84.

For the variant G27C G30U, the self-cleavage was determined as 1.72.

Consider A26U C31U, for which the self-cleavage amounted to 0.18.

Turning to A26U C31A, the self-cleavage is 0.14.

A26U C31G: the self-cleavage stood at 0.08.

Turning to U28C A41C, the self-cleavage is 0.03.

As for U28C A41U, the self-cleavage worked out at 0.45.

Consider U28C A41G, for which the self-cleavage worked out at 0.43.

With U28A G29A, the self-cleavage worked out at 0.6.

In the case of U28A G29C, the self-cleavage came to 0.16.

Turning to U28A G29U, the self-cleavage was 0.41.

Turning to U28A G40U, the self-cleavage was found to be 0.12.

In the case of U28A G40C, the self-cleavage was determined as 0.09.

Regarding U28A G40A, the self-cleavage stood at 0.1.

As for G27U U28G, the self-cleavage was 1.08.

For the variant G27U U28A, the self-cleavage was found to be 0.34.

G27U U28C: the self-cleavage is 1.23.

As for A26G U28C, the self-cleavage came out at 1.18.

With A26G U28G, the self-cleavage stood at 0.37.

For A26G U28A, the self-cleavage came to 1.25.

Turning to U28A C45G, the self-cleavage was 0.24.

For the variant U28A C45U, the self-cleavage was found to be 1.28.

As to U28A C45A, the self-cleavage worked out at 0.29.

Regarding G27A C31A, the self-cleavage stood at 1.09.

As to G27A C31U, the self-cleavage came to 0.26.

For G27A C31G, the self-cleavage was 0.2.

Regarding G27U G29C, the self-cleavage amounted to 0.27.

Regarding G27U G29A, the self-cleavage was 0.96.

Turning to G27U G29U, the self-cleavage came out at 1.03.

With U28C, the self-cleavage amounted to 0.73.

Take U28A: the self-cleavage was determined as 0.71.

As for U28C C31A, the self-cleavage is 0.87.

On to U28C C31U, for which the self-cleavage was determined as 0.45.

In the case of U28C C31G, the self-cleavage amounted to 0.16.

In the case of U28C C42A, the self-cleavage was 0.16.

In the case of U28C C42U, the self-cleavage turned out to be 0.15.

With U28C C42G, the self-cleavage amounted to 0.13.

As to G27C C45A, the self-cleavage worked out at 0.29.

Turning to G27C C45G, the self-cleavage worked out at 0.32.

As to G27C C45U, the self-cleavage was determined as 2.02.

Regarding G27A A41C, the self-cleavage was determined as 0.04.

As for G27A A41G, the self-cleavage was 0.38.

As to G27A A41U, the self-cleavage turned out to be 0.49.

Regarding A26G U34G, the self-cleavage is 0.03.

Regarding A26G U34A, the self-cleavage is 0.04.

A26G U34C: the self-cleavage was found to be 0.08.

Regarding G27C G36A, the self-cleavage was 0.35.

Regarding G27C G36U, the self-cleavage stood at 0.05.

As to G27C G36C, the self-cleavage was determined as 0.09.

For the variant A26U C37A, the self-cleavage came out at 0.08.

As for A26U C37G, the self-cleavage was found to be 0.05.

As to A26U C37U, the self-cleavage amounted to 0.08.

Regarding A26U U34A, the self-cleavage stood at 0.07.

On to A26U U34G, for which the self-cleavage is 0.15.

A26U U34C: the self-cleavage stood at 0.18.

As to G27A C37G, the self-cleavage turned out to be 0.02.

Regarding G27A C37A, the self-cleavage was found to be 0.05.

For the variant G27A C37U, the self-cleavage is 0.05.

As to A26U A41U, the self-cleavage is 0.75.

For A26U A41C, the self-cleavage worked out at 0.07.

With A26U A41G, the self-cleavage is 0.37.

Turning to G27U C37A, the self-cleavage stood at 0.03.

For the variant G27U C37U, the self-cleavage turned out to be 0.07.

For G27U C37G, the self-cleavage stood at 0.03.

On to A26U G44C, for which the self-cleavage was 0.64.

In the case of A26U G44U, the self-cleavage is 0.41.

Consider A26U G44A, for which the self-cleavage amounted to 0.64.

As for G27U G40A, the self-cleavage came out at 0.13.

For the variant G27U G40U, the self-cleavage was found to be 0.13.

For the variant G27U G40C, the self-cleavage came out at 0.16.

For A26G U38G, the self-cleavage is 0.01.

With A26G U38A, the self-cleavage was found to be 0.52.

Consider A26G U38C, for which the self-cleavage was found to be 0.44.

For the variant G27A U43G, the self-cleavage was 0.05.

As to G27A U43A, the self-cleavage is 0.08.

Regarding G27A U43C, the self-cleavage is 0.37.

A26U G33A: the self-cleavage was 0.09.

For the variant A26U G33C, the self-cleavage amounted to 0.06.

In the case of A26U G33U, the self-cleavage is 0.08.

Regarding A26U G40A, the self-cleavage is 0.17.

On to A26U G40U, for which the self-cleavage stood at 0.13.

For A26U G40C, the self-cleavage is 0.06.

In the case of A26U C46U, the self-cleavage came out at 2.38.

As for A26U C46A, the self-cleavage was 0.77.

On to A26U C46G, for which the self-cleavage turned out to be 1.18.

Regarding U28A C46A, the self-cleavage came out at 1.23.

Consider U28A C46U, for which the self-cleavage is 0.66.

Regarding U28A C46G, the self-cleavage was found to be 0.87.

On to G27C G29C, for which the self-cleavage was 0.37.

On to G27C G29U, for which the self-cleavage is 0.51.

G27C G29A: the self-cleavage came out at 0.39.

As for U28A C31A, the self-cleavage is 0.83.

Regarding U28A C31U, the self-cleavage stood at 0.54.

U28A C31G: the self-cleavage was found to be 0.13.

On to G27C U34C, for which the self-cleavage turned out to be 0.08.

For the variant G27C U34A, the self-cleavage is 0.2.

Regarding G27C U34G, the self-cleavage came to 0.2.

G27A U32A: the self-cleavage worked out at 0.06.

Turning to G27A U32C, the self-cleavage worked out at 0.15.

For G27A U32G, the self-cleavage was 0.21.

As for U28A U34G, the self-cleavage was determined as 0.11.

With U28A U34A, the self-cleavage was found to be 0.44.

For U28A U34C, the self-cleavage came out at 0.07.

Regarding G27A U34G, the self-cleavage stood at 0.32.

With G27A U34C, the self-cleavage was 0.13.

G27A U34A: the self-cleavage was 0.19.

On to G27A U28C, for which the self-cleavage was 0.87.

Regarding G27A U28A, the self-cleavage stood at 0.77.

Take G27A U28G: the self-cleavage was 0.4.

As for G27A C45A, the self-cleavage stood at 0.79.

For G27A C45G, the self-cleavage is 0.51.

As for G27A C45U, the self-cleavage was determined as 1.88.

A26U: the self-cleavage stood at 1.27.

G27A G44C: the self-cleavage was determined as 0.65.

As to G27A G44A, the self-cleavage turned out to be 0.34.

Turning to G27A G44U, the self-cleavage stood at 0.3.

For the variant G27U C42A, the self-cleavage was determined as 0.17.

Regarding G27U C42U, the self-cleavage was 0.2.

As for G27U C42G, the self-cleavage stood at 0.04.

Consider G27C U38C, for which the self-cleavage was 0.29.

In the case of G27C U38G, the self-cleavage stood at 0.02.

On to G27C U38A, for which the self-cleavage was determined as 0.34.

For G27U A39G, the self-cleavage worked out at 0.22.

Take G27U A39U: the self-cleavage worked out at 0.56.

For G27U A39C, the self-cleavage stood at 0.22.

In the case of G27A U38G, the self-cleavage was 0.02.

As for G27A U38A, the self-cleavage turned out to be 0.28.

As to G27A U38C, the self-cleavage turned out to be 0.26.

As for G27A C42U, the self-cleavage worked out at 0.26.

G27A C42A: the self-cleavage came out at 0.21.

In the case of G27A C42G, the self-cleavage amounted to 0.05.

Turning to U28C A39G, the self-cleavage was 0.09.

U28C A39C: the self-cleavage was determined as 0.1.

In the case of U28C A39U, the self-cleavage stood at 1.

Consider G27C G40C, for which the self-cleavage came to 0.07.

For G27C G40U, the self-cleavage turned out to be 0.12.

As to G27C G40A, the self-cleavage was found to be 0.12.

With G27U C31U, the self-cleavage was 0.33.

Take G27U C31A: the self-cleavage worked out at 0.46.

As for G27U C31G, the self-cleavage turned out to be 0.21.

Regarding U28A G35C, the self-cleavage was found to be 0.08.

For U28A G35A, the self-cleavage came out at 0.15.

With U28A G35U, the self-cleavage turned out to be 0.18.

On to G27C C37G, for which the self-cleavage was found to be 0.02.

In the case of G27C C37U, the self-cleavage is 0.04.

Turning to G27C C37A, the self-cleavage is 0.06.

Regarding G27A G30A, the self-cleavage was found to be 2.28.

Consider G27A G30C, for which the self-cleavage stood at 1.53.

Consider G27A G30U, for which the self-cleavage was 1.61.

U28A U32C: the self-cleavage was 0.18.

Take U28A U32G: the self-cleavage was 0.3.
